Experimental data from patent US20040258747A1 (G GASLINI CHILDREN S HOSPITAL, published 2004).
Ends that are not written are not given here.

Target: T1, CD13 (aminopeptidase N) as expressed on THP-1 cells (human acute monocytic leukemia) (human, UniProt P15144 2-967)
T1 construct: whole, on cells; The CD13 form on THP-1 is recognised by WM15 but not by the NGR liposomes
Assay: FACS of doxorubicin fluorescence, THP-1 cells 1 h at 4 C

T1 sequence (P15144 2-967): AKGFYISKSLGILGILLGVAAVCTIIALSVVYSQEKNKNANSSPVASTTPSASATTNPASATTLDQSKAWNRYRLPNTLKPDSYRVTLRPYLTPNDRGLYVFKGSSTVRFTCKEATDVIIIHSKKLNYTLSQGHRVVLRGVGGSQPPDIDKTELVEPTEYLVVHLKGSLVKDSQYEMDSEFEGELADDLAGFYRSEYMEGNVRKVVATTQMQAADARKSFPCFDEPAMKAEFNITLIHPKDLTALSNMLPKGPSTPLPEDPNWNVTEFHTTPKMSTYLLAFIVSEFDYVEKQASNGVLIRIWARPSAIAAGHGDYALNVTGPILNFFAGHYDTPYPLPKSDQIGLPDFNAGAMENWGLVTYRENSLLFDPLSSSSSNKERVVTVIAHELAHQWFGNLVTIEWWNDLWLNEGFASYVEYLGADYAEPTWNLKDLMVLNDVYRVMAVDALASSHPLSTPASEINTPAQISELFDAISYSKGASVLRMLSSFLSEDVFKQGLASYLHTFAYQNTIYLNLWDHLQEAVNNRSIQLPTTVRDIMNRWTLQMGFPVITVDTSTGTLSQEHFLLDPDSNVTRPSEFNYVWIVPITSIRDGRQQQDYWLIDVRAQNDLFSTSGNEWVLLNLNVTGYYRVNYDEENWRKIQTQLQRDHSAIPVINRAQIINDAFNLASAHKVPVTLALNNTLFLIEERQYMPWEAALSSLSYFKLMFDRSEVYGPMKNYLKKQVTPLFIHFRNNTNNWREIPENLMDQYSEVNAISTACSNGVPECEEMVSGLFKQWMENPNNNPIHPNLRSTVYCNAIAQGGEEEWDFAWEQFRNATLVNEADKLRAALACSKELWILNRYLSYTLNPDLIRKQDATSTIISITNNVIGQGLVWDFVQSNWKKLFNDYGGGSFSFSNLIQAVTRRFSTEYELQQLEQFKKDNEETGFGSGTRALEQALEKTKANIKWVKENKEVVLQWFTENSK

B1: ARA-targeted (sham-targeted) sterically stabilized liposomal doxorubicin (ARA-SL[DXR]): control peptide GARAGGVRSSSRTPSDKYC coupled to the liposome surface (peptide)
peptide: GARAGGVRSSSRTPSDKYC(PEG2000‑DSPE‑MAL (liposome))
modifications: not fully specified; also: on surface of doxorubicin-loaded sterically stabilized liposome
notes: Control formulation; Same liposome as NGR-SL[DXR], with NGR replaced by ARA in the peptide; also called mismatched peptide ARA
Does B1 bind?
Result: no binding
